Molecular target: lamin A/C (human (endogenous in primary myoblasts)) (UniProt P02545)
Experiment: proximity ligation; in situ PLA (Duolink) on methanol-fixed human myoblasts after uniaxial cyclic stretching (10% strain, 1 Hz, 4 h); anti-lamin A/C with anti-desmin or anti-plectin 1; 100 nuclei counted per replicate

UniProt P02545, sequence (P02545 1-646): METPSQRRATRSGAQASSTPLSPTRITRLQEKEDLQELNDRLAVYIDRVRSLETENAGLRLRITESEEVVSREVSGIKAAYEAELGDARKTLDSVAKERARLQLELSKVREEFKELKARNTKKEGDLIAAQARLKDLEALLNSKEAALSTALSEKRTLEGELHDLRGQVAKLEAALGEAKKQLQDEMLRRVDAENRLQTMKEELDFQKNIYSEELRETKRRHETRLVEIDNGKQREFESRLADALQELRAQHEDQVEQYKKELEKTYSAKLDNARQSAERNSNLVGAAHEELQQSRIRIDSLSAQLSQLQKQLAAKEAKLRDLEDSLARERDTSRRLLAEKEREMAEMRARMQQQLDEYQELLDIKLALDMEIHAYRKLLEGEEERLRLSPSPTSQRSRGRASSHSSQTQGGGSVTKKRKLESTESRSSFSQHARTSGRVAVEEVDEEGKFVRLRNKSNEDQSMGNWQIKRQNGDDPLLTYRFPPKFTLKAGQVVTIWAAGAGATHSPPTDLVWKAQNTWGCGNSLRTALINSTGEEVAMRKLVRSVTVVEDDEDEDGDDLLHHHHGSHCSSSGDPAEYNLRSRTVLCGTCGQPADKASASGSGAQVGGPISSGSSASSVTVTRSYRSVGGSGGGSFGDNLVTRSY

increase of PLA signal relative to non-stimulated cells: 64%
Substance: plectin 1 (natural protein)
